For assay [1], the target named is HLA-A*02:01 presented KRAS^G12D epitope on cells (human). The experiment in a line: cell-based or functional assay.
Assay [2] deals with HLA-A*02:01 presented KRAS^G12V epitope on cells (human). The experiment in a line: cell-based or functional assay.
Assay [3] deals with HLA-A*02:01 presented KRAS^wild type epitope on cells (human). The assay is described as follows: cell-based or functional assay.
In assay [4] the target is T1, KRAS wild type peptide on HLA-A*02:01 (human).
T1 peptide: KLVVVGAGGV
The experiment in a line: killing. The method, then:
(§1) KTCR1, KRAS^G12V-specific, HLA-A*02:01-restricted TCR and KTCR2 and KTCR3, KRAS^G12D-specific, HLA-A*02:01-restricted TCRs were co cultured with K562-A*02:01 antigen presenting cells which were peptide pulsed with either the KRAS^G12D, KRAS^G12V, KRAS^WT peptide (10 μg/mL) for 5 hours at an effector to target cell ratio of 5:1.

The target of assay [5] is T2, KRAS G12V peptide on HLA-A*02:01 (human).
T2 peptide: KLVVVGAVGV
The assay is described as follows: multimer staining.

In assay [6] the target is T3, KRAS G12D peptide on HLA-A*02:01 (human).
T3 peptide: KLVVVGADGV
The assay is described as follows: multimer staining.

Assay [7] concerns the target A*02:01-KRAS^G12V tetramer (human) (UniProt P61769). The assay is described as follows: tetramer staining of TCR-transduced T cells, flow cytometry (FIG. 24).
The target of assay [8] is T2, KRAS G12V peptide on HLA-A*02:01. The experiment in a line: killing. The method, then:
as §1

The target of assay [9] is T3, KRAS G12D peptide on HLA-A*02:01. The experiment in a line: killing. As for the experimental part: as §1

Where “and” joins values, the source holds several entries; their conditions need not be identical. Identical values can stand only once.

B1: KTCR-1 (TCR, V domains shown)
Valpha: TQLLEQSPQFLSIQEGENLTVYCNSSSVFSSLQWYRQEPGEGPVLLVTVVTGGEVKKLKRLTFQFGDARKDSSLHITAAQPGDTGLYLCAGEFESNAGNMLTFGGGTRLMVKP
Vbeta: DGGITQSPKYLFRKEGQNVTLSCEQNLNHDAMYWYRQDPGQGLRLIYYSQIVNDFQKGDIAEGYSVSREKKESFPLTVTSAQKNPTAFYLCASSIWLGPKGPGELFFGEGSRLTVL
On to B1, for which, in assay [1], the IFNγ ELISpot, KTCR-1 CD8+ T cells co-cultured with PANC-1 (HLA-A*02:01^+ KRAS^G12D), Mean (SFU of IFNγ/2.0 × 10^4 cell input) was found to be 19.5; the IFNγ ELISpot, KTCR-1 CD8+ T cells co-cultured with PANC-1 (HLA-A*02:01^+ KRAS^G12D), replicate (SFU of IFNγ/2.0 × 10^4 cell input) is 13 and 18; the Mean % cytotoxicity (cell lysis) of K562 A*02:01 + KRAS^G12D target cells, FVS780 flow cytometry, 5 hours, effector to target 5:1 turned out to be 4%. Further, in assay [2], the IFNγ ELISpot, KTCR-1 CD8+ T cells co-cultured with CFPAC-1 (HLA-A*02:01^+ KRAS^G12V), Mean (SFU of IFNγ/2.0 × 10^4 cell input) came to 42; the IFNγ ELISpot, KTCR-1 CD8+ T cells co-cultured with CFPAC-1 (HLA-A*02:01^+ KRAS^G12V), replicate (SFU of IFNγ/2.0 × 10^4 cell input) was 52 and 42; the Mean % cytotoxicity (cell lysis) of K562 A*02:01 + KRAS^G12V target cells, FVS780 flow cytometry, 5 hours, effector to target 5:1 came to 16.5%. The Mean % cytotoxicity (cell lysis) of K562 + KRAS^Wild type target cells, FVS780 flow cytometry, 5 hours, effector to target 5:1 in assay [3] amounted to 2.9%. The binding result in [4] is on record as “no recognition”. The binding result in assay [5] is recorded as “recognises”. Besides, the binding result in assay [6] is given as “no recognition”. In assay [7], this molecule displayed a percent of TCR transduced T cells tetramer positive greater than 90%.

B2: KTCR-2 (TCR, V domains shown)
Valpha: GESVGLHLPTLSVQEGDNSIINCAYSNSASDYFIWYKQESGKGPQFIIDIRSNMDKRQGQRVTVLLNKTVKHLSLQIAATQPGDSAVYFCAENRDTDKLIFGTGTRLQVFP
Vbeta: DGGITQSPKYLFRKEGQNVTLSCEQNLNHDAMYWYRQDPGQGLRLIYYSQIVNDFQKGDIAEGYSVSREKKESFPLTVTSAQKNPTAFYLCASSIWLGPKGPGELFFGEGSRLTVL
On to B2, for which, in [1], the IFNγ ELISpot, KTCR-2 CD8+ T cells co-cultured with PANC-1 (HLA-A*02:01^+ KRAS^G12D), Mean (SFU of IFNγ/2.0 × 10^4 cell input) came to 98.5; the IFNγ ELISpot, KTCR-2 CD8+ T cells co-cultured with PANC-1 (HLA-A*02:01^+ KRAS^G12D), replicate (SFU of IFNγ/2.0 × 10^4 cell input) was 105 and 92; the Mean % cytotoxicity (cell lysis) of K562 A*02:01 + KRAS^G12D target cells, FVS780 flow cytometry, 5 hours, effector to target 5:1 stood at 19.1%. In [2], the IFNγ ELISpot, KTCR-2 CD8+ T cells co-cultured with CFPAC-1 (HLA-A*02:01^+ KRAS^G12V), Mean (SFU of IFNγ/2.0 × 10^4 cell input) turned out to be 11.5; the IFNγ ELISpot, KTCR-2 CD8+ T cells co-cultured with CFPAC-1 (HLA-A*02:01^+ KRAS^G12V), replicate (SFU of IFNγ/2.0 × 10^4 cell input) is 8 and 15; the Mean % cytotoxicity (cell lysis) of K562 A*02:01 + KRAS^G12V target cells, FVS780 flow cytometry, 5 hours, effector to target 5:1 turned out to be 4%. The Mean % cytotoxicity (cell lysis) of K562 + KRAS^Wild type target cells, FVS780 flow cytometry, 5 hours, effector to target 5:1 in [3] came out at 4.79%. Besides, in assay [8], the binding result is “no recognition”. For the same molecule, the binding result in [9] is given as “recognises”. Also, in [4], the binding result is recorded as “no recognition”.

B3: KTCR-3 (TCR, V domains shown)
Valpha: TQLLEQSPQFLSIQEGENLTVYCNSSSVFSSLQWYRQEPGEGPVLLVTVVTGGEVKKLKRLTFQFGDARKDSSLHITAAQPGDTGLYLCAGEFESNAGNMLTFGGGTRLMVKP
Vbeta: DTEVTQTPKHLVMGMTNKKSLKCEQHMGHRAMYWYKQKAKKPPELMFVYSYEKLSINESVPSRFSPECPNSSLLNLHLHALQPEDSALYLCASSLQITTDGYTFGSGTRLTVV
On to B3, for which, in assay [1], the IFNγ ELISpot, KTCR-3 CD8+ T cells co-cultured with PANC-1 (HLA-A*02:01^+ KRAS^G12D), Mean (SFU of IFNγ/2.0 × 10^4 cell input) was 63; the IFNγ ELISpot, KTCR-3 CD8+ T cells co-cultured with PANC-1 (HLA-A*02:01^+ KRAS^G12D), replicate (SFU of IFNγ/2.0 × 10^4 cell input) is 73 and 53; the Mean % cytotoxicity (cell lysis) of K562 A*02:01 + KRAS^G12D target cells, FVS780 flow cytometry, 5 hours, effector to target 5:1 amounted to 16.3%. For the same molecule, in [2], the IFNγ ELISpot, KTCR-3 CD8+ T cells co-cultured with CFPAC-1 (HLA-A*02:01^+ KRAS^G12V), Mean (SFU of IFNγ/2.0 × 10^4 cell input) was determined as 21; the IFNγ ELISpot, KTCR-3 CD8+ T cells co-cultured with CFPAC-1 (HLA-A*02:01^+ KRAS^G12V), replicate (SFU of IFNγ/2.0 × 10^4 cell input) is 13 and 19; the Mean % cytotoxicity (cell lysis) of K562 A*02:01 + KRAS^G12V target cells, FVS780 flow cytometry, 5 hours, effector to target 5:1 came out at 2%. Further, the Mean % cytotoxicity (cell lysis) of K562 + KRAS^Wild type target cells, FVS780 flow cytometry, 5 hours, effector to target 5:1 in assay [3] is 2.82%. Further, in [8], the binding result is reported as “no recognition”. Besides, the binding result in assay [9] is “recognises”. The binding result in assay [4] is “no recognition”.

The values are drawn from US20220227883A1 (published 2022).
